Where no end group is shown, it is not given here.
B1: Phage-1818 (peptide)
peptide: MERWCVPDWMCATF
modifications: cysteine pairing not given here; also: displayed on phage as pIII fusion, pIII sequence and linker not given here
B2: Phage-1708 (peptide)
peptide: IAVLCQPNWMCAGF
modifications: cysteine pairing not given here; also: fused to phage pIII (clonal phage display)
notes: also called Peptide-180; not shown: pIII coat protein of the bacteriophage to which the peptide is fused
B3: Phage-1714 (peptide)
peptide: FVCWTFGEHIKVCR
modifications: cysteine pairing not given here; also: displayed on phage as pIII fusion, pIII sequence, linker and fusion order not given here
notes: not shown: pIII coat protein of the bacteriophage to which the peptide is fused
B4: Phage-1711 (peptide)
peptide: MEYCSFHRFTCVLW
modifications: cysteine pairing not given here; also: displayed on phage as pIII fusion, pIII sequence, linker and fusion order not given here
notes: as for B3
B5: Phage-1709 (peptide)
peptide: PELRCVPFWMCSFN
modifications: cysteine pairing not given here; also: fused to phage pIII (clonal phage display)
notes: as for B3
B6: Phage-1716 (peptide)
peptide: IECAYMTDQRFWCW
modifications: cysteine pairing not given here; also: fused to phage pIII (clonal phage display)
notes: as for B3
B7: Phage-1710 (peptide)
peptide: SIPCIPRDWLCPIK
modifications: cysteine pairing not given here; also: displayed as fusion to phage pIII, linker and order of fusion not given here
notes: as for B3
B8: Phage-1721 (peptide)
peptide: SCFSFARLEVVPCD
modifications: cysteine pairing not given here; also: displayed on phage as pIII fusion, pIII sequence, linker and fusion order not given here
notes: as for B3
B9: Phage-1715 (peptide)
peptide: ILCGLYEALVSECG
modifications: cysteine pairing not given here; also: displayed on phage as pIII fusion, pIII sequence, linker and fusion order not given here
notes: as for B3
B10: Phage-1719 (peptide)
peptide: DCFYAADIHWNYCN
modifications: cysteine pairing not given here; also: displayed on phage as pIII fusion, pIII sequence, linker and fusion order not given here
notes: as for B3
B11: Phage-1722 (peptide)
peptide: TCLRFADLAIIHCD
modifications: cysteine pairing not given here; also: displayed on phage as pIII fusion, pIII sequence, linker and fusion order not given here
notes: also called Peptide-160; not shown: pIII coat protein of the bacteriophage to which the peptide is fused
B12: Phage-1712 (peptide)
peptide: IRCVGEGHDLVCIF
modifications: cysteine pairing not given here; also: displayed on phage as pIII fusion, pIII sequence, linker and fusion order not given here
notes: as for B3
B13: Phage-1707 (peptide)
peptide: LMKWCTPRWMCAAE
modifications: cysteine pairing not given here; also: fused to phage pIII (clonal phage display)
notes: as for B3
B14: Phage-1717 (peptide)
peptide: HCLGPALGPVDGDC
modifications: cysteine pairing not given here; also: displayed on phage as pIII fusion, pIII sequence, linker and fusion order not given here
notes: as for B3
B15: Phage-1718 (peptide)
peptide: SCGWLRGEEFGWWC
modifications: cysteine pairing not given here; also: displayed on phage as pIII fusion, pIII sequence, linker and fusion order not given here
notes: also called Peptide-190; not shown: pIII coat protein of the bacteriophage to which the peptide is fused

What follows are binders tested against T1, Anti-PSMA Fab (SEQ ID NOs: 19, 20) (assay: phage binding ELISA on captured anti-PSMA Fab; competitor: PSMA antigen).
T1 construct: In the phage ELISA the Fab was biotinylated and captured on neutravidin coated plates; also called 006 PSMA Fab
Description: (§1) Clonal phage were harvested as crude supernatants and screened via standard ELISAs. […] Prior to the addition of clonal phage. wells were incubated with blocking buffer and PSMA antigen or blocking buffer alone. Without washing or aspirating, clonal phage supernatants were then added to the wells and incubated for a short time. Wells were then washed followed by detection of bound phage using a horse radish conjugated anti-M13 antibody.

Binder | Anti-PSMA Fab signal in the presence of PSMA
PERLCTPPWMCLGF [Phage-1817] | 0.0917
ALKLCIPFWMCEGL [Phage-1819] | 0.129
MVKWCTPAWMCEML [Phage-1820] | 0.113
B1 | 0.0578

These binders were tested against T1, Anti-PSMA Fab (SEQ ID NOs: 19, 20) (assay: phage binding ELISA; clonal phage on biotinylated anti-PSMA Fab captured on neutravidin, anti-M13 HRP detection).
Description: as §1

Binder | Anti-PSMA Fab (SEQ ID NOs: 19, 20) signal
PERLCTPPWMCLGF [Phage-1817] | 2.24
ALKLCIPFWMCEGL [Phage-1819] | 2.44
MVKWCTPAWMCEML [Phage-1820] | 2.41
B1 | 2.47

What follows are binders tested against T2, Anti-PSMA Fab (SEQ ID NOs: 19, 20) (assay: phage binding ELISA; PSMA Fab coated wells pre-incubated with PSMA antigen as competitor, anti-M13 HRP detection).
T2 construct: also called 006 PSMA Fab
Description: as §1

Binder | Anti-PSMA Fab signal in the presence of PSMA
TEVRCTPPWMCLGF (tested as clonal phage supernatant) [Phage-1814] | 0.0981
IVVKCVPSWMCEGF (tested as clonal phage supernatant) [Phage-1812] | 0.102
ITPICKPAWICSGF (tested as clonal phage supernatant) [Phage-1806] | 0.0631
VEVKCFPLWFCVGL (tested as clonal phage supernatant) [Phage-1805] | 0.0923
LEPLCVPRWMCVGF (tested as clonal phage supernatant) [Phage-1803] | 0.112
ITPVCKPLWMCSGL (tested as clonal phage supernatant) [Phage-1804] | 0.0764
PEHLCLPRWMCEGF (tested as clonal phage supernatant) [Phage-1808] | 0.135
TVAYCKPAWMCQGF (tested as clonal phage supernatant) [Phage-1813] | 0.108
TTHVCIPSWMCSGF (tested as clonal phage supernatant) [Phage-1810] | 0.0668
VNHWCVPTWMCAGF (tested as clonal phage supernatant) [Phage-1811] | 0.186
VERLCTPAWMCHGF (tested as clonal phage supernatant) [Phage-1815] | 0.214
VLKYCIPDWMCAGI (tested as clonal phage supernatant) [Phage-1816] | 0.0978
VVIKCKPEWMCSGF (tested as clonal phage supernatant) [Phage-1807] | 0.0946
YERACIPNWICEGF (tested as clonal phage supernatant) [Phage-1809] | 0.0842

What follows are binders tested against T2, Anti-PSMA Fab (SEQ ID NOs: 19, 20) (assay: phage binding ELISA; biotinylated PSMA Fab on neutravidin plate, clonal phage supernatant, anti-M13 HRP detection;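 note: wells were preincubated with blocking buffer either containing PSMA antigen or without it before crude phage supernatant was added, briefly incubated, then washed prior to detection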).
Description: as §1

Binder | Anti-PSMA Fab (SEQ ID NOs: 19, 20) signal
TEVRCTPPWMCLGF (tested as clonal phage supernatant) [Phage-1814] | 2.36
IVVKCVPSWMCEGF (tested as clonal phage supernatant) [Phage-1812] | 2.4
ITPICKPAWICSGF (tested as clonal phage supernatant) [Phage-1806] | 2.2
VEVKCFPLWFCVGL (tested as clonal phage supernatant) [Phage-1805] | 2.23
LEPLCVPRWMCVGF (tested as clonal phage supernatant) [Phage-1803] | 2.36
ITPVCKPLWMCSGL (tested as clonal phage supernatant) [Phage-1804] | 2.35
PEHLCLPRWMCEGF (tested as clonal phage supernatant) [Phage-1808] | 1.78
TVAYCKPAWMCQGF (tested as clonal phage supernatant) [Phage-1813] | 2.37
TTHVCIPSWMCSGF (tested as clonal phage supernatant) [Phage-1810] | 2.15
VNHWCVPTWMCAGF (tested as clonal phage supernatant) [Phage-1811] | 2.41
VERLCTPAWMCHGF (tested as clonal phage supernatant) [Phage-1815] | 2.36
VLKYCIPDWMCAGI (tested as clonal phage supernatant) [Phage-1816] | 2.24
VVIKCKPEWMCSGF (tested as clonal phage supernatant) [Phage-1807] | 2.18
YERACIPNWICEGF (tested as clonal phage supernatant) [Phage-1809] | 1.03

These binders were tested against T3, Anti-CD28 Fab (SEQ ID NOs: 696, 697) (assay: phage binding ELISA; biotinylated anti-CD28 Fab on neutravidin plate, clonal phage supernatant, anti-M13 HRP detection;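 note: wells pretreated with blocking buffer, either plus or minus CD28 antigen, then given crude phage supernatant briefly without washing in between, then washed before anti-M13 HRP readout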).
T3 construct: In the phage ELISA the Fab was biotinylated and captured on neutravidin coated plates
T3 sequence (VH, as listed by the source, chain 1 of 2): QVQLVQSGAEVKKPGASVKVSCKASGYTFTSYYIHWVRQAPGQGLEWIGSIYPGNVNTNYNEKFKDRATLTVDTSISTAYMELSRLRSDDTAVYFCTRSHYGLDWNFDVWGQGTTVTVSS
T3 sequence (VL, as listed by the source, chain 2 of 2): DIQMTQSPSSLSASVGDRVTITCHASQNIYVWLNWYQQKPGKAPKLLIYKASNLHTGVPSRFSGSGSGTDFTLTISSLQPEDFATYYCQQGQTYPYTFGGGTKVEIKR
Description: (§2) Clonal phage were harvested as crude supematants and screened via standard ELISAs. […] Prior to the addition of clonal phage, wells were incubated with blocking buffer and CD28 antigen or blocking buffer alone. Without washing or aspirating, clonal phage supematants were then added to the wells and incubated for a short time. Wells were then washed followed by detection of bound phage using a horse radish conjugated anti-M13 antibody.

Binder | Phage binding ELISA, Anti-CD28 Fab signal
DCWWDSPYHWRVCL [Phage-1703] | 0.57

These binders were tested against T4, Anti-PSMA Fab (SEQ ID NOs: 19, 20) (assay: phage binding ELISA; biotinylated anti-PSMA Fab on neutravidin plate, clonal phage supernatant, anti-M13-HRP detection).
T4 construct: Used biotinylated and captured on neutravidin coated plates; also called 006 PSMA Fab
Description: as §1

Binder | Anti-PSMA Fab (SEQ ID NOs: 19, 20) signal
B2 | 0.997
B3 | 2.51
B4 | 1.88
B5 | 0.622
B6 | 1.93
B7 | 1.89
B8 | 1.26
B9 | 2.49
B10 | 1.88
B11 | 1.82
B12 | 2.36
B13 | 1.04
B14 | 2.33
B15 | 0.648

Each binder was assayed against T3, Anti-CD28 Fab (SEQ ID NOs: 696, 697) (assay: phage binding ELISA on plate-captured anti-CD28 Fab pre-incubated with CD28 antigen (competitor: CD28), anti-M13 HRP detection).
Description: as §2

Binder | Phage binding ELISA, Anti-CD28 Fab signal in the presence of CD28
DCWWDSPYHWRVCL [Phage-1703] | 0.07

Each binder was assayed against T4, Anti-PSMA Fab (SEQ ID NOs: 19, 20) (assay: phage binding ELISA; biotinylated anti-PSMA Fab on neutravidin plate, wells pre-incubated with PSMA antigen as competitor, anti-M13-HRP detection).
Description: as §1

Binder | Anti-PSMA Fab signal in the presence of PSMA
B2 | 0.077
B3 | 0.205
B4 | 0.117
B5 | 0.064
B6 | 0.066
B7 | 0.096
B8 | 0.0555
B9 | 0.063
B10 | 1.15
B11 | 0.0697
B12 | 0.072
B13 | 0.232
B14 | 0.076
B15 | 0.071

— US20260242478A1 (published 2026)
